{
  "source": "paper doi:10.1101/2025.07.21.665923",
  "about": "(bioRxiv, 2025)",
  "key": {"[1]": {"biological_target": "N-terminally biotinylated URAT1 peptide (human)", "assay": "SPR"}, "[2]": {"biological_target": "URAT1 peptide (15 C-terminal residues of human URAT1), TAMRA-labelled (human)", "assay": "fluorescence polarisation"}, "[3]": {"biological_target": "NaPi-IIa peptide (15 C-terminal residues of NaPi-IIa), TAMRA-labelled (human (identical in mouse))", "assay": "fluorescence polarisation"}, "full-length mouse Pdzk1": {"biological_target": "T1, full-length mouse Pdzk1 (mouse, UniProt Q9JIL4 1-519)", "T1 sequence (looked up)": "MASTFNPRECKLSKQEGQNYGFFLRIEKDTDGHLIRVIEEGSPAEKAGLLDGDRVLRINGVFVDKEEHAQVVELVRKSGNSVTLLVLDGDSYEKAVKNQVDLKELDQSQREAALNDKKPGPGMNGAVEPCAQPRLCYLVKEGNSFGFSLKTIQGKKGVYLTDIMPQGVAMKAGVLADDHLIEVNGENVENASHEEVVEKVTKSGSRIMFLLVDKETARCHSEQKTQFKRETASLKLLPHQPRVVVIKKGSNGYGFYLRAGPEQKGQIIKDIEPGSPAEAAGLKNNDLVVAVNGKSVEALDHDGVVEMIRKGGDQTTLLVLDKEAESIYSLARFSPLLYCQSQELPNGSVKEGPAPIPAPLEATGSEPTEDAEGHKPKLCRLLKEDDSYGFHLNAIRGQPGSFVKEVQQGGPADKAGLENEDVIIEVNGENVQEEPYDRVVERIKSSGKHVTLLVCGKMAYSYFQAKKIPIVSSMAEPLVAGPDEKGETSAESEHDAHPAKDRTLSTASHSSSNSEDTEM", "assay": "fluorescence polarisation"}, "full-length mouse Nherf1": {"biological_target": "T2, full-length mouse Nherf1 (mouse, UniProt P70441 1-355)", "T2 sequence (looked up)": "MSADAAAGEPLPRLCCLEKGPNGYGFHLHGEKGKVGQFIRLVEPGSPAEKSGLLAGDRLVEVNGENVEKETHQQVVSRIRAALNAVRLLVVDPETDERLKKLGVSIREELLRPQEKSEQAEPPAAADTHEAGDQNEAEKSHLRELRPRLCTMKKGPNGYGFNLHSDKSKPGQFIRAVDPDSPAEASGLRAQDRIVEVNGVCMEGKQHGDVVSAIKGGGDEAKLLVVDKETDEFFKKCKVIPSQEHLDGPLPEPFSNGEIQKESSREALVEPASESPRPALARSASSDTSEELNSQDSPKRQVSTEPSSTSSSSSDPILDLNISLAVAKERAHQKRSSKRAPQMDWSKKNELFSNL", "assay": "fluorescence polarisation"}, "full-length human NHERF1": {"biological_target": "T3, full-length human NHERF1 (human, UniProt O14745 1-358)", "T3 sequence (looked up)": "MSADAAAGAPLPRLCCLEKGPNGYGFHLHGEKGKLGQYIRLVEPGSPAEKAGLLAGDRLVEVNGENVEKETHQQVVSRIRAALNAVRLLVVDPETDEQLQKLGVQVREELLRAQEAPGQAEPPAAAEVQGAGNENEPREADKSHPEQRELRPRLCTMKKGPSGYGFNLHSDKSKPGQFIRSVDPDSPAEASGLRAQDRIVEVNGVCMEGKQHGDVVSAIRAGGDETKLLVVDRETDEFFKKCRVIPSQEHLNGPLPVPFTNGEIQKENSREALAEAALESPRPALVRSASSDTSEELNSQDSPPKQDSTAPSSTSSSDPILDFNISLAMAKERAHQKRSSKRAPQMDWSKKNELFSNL", "assay": "fluorescence polarisation"}, "[4]": {"biological_target": "T4, full-length human PDZK1 (NHE3 regulatory factor 3, NHERF3) (human, UniProt Q5T2W1 1-519)", "T4 sequence (looked up)": "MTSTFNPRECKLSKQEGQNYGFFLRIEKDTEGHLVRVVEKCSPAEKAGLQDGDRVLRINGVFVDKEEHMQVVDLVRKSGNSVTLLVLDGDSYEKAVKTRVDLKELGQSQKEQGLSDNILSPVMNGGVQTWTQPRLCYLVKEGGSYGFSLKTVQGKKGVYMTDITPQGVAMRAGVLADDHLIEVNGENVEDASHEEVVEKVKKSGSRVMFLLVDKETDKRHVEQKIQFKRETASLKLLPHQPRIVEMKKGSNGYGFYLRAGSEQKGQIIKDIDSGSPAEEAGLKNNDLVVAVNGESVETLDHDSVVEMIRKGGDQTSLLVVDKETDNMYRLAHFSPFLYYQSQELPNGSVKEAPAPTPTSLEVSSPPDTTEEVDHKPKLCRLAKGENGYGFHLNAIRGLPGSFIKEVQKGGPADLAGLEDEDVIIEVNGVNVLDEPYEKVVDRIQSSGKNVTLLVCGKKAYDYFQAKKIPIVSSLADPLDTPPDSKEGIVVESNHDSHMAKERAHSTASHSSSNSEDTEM", "assay": "SEC"}, "[5]": {"biological_target": "T4, full-length human PDZK1 (NHE3 …)", "assay": "SEC", "remark": "listed apart in the source"}, "[6]": {"biological_target": "T4, full-length human PDZK1 (NHE3 …)", "assay": "fluorescence polarisation"}},
  "note": "Read-outs that look alike come from different tables or passages of the source. Where no end group is shown, it is not given here. TAMRA = tetramethylrhodamine",
  "data": [
    {"molecule": "PDZ4 domain of human PDZK1 (3PDZ4), C-terminal His8-tag (domain or fragment)", "values": [
      {"measurement": "Kd", "setting": "[1]", "result": 1.78, "unit": "µM"},
      {"measurement": "koff", "setting": "[1]", "result": 0.631, "unit": "s⁻¹"},
      {"measurement": "kon", "setting": "[1]", "result": 354000, "unit": "M⁻¹ s⁻¹"},
      {"measurement": "Kd", "setting": "[2]", "result": 1.35, "unit": "µM"}
    ]},
    {"molecule": "PDZ1 domain of human NHERF1 (1PDZ1), C-terminal His8-tag (domain or fragment)", "values": [
      {"measurement": "Kd", "setting": "[3]", "result": 4.4, "unit": "µM"}
    ]},
    {"molecule": "PDZ1 domain of human PDZK1 (3PDZ1), tag-less (domain or fragment)", "values": [
      {"measurement": "Kd", "setting": "[1]", "result": 1.1, "unit": "µM"},
      {"measurement": "koff", "setting": "[1]", "result": 0.494, "unit": "s⁻¹"},
      {"measurement": "kon", "setting": "[1]", "result": 448000, "unit": "M⁻¹ s⁻¹"},
      {"measurement": "Kd", "setting": "[2]", "result": 0.16, "unit": "µM"},
      {"measurement": "Kd", "setting": "[3]", "result": 12.5, "unit": "µM"}
    ]},
    {"molecule": "PDZ2 domain of human NHERF1 (1PDZ2), C-terminal His8-tag (domain or fragment)", "values": [
      {"measurement": "Kd", "setting": "[3]", "result": "> 170", "unit": "µM"}
    ]},
    {"molecule": "PDZ3 domain of human PDZK1 (3PDZ3), C-terminal His8-tag (domain or fragment)", "values": [
      {"measurement": "Kd", "setting": "[2]", "result": "> 200", "unit": "µM"}
    ]},
    {"molecule": "PDZ2 domain of human PDZK1 (3PDZ2), C-terminal His8-tag (domain or fragment)", "values": [
      {"measurement": "Kd", "setting": "[2]", "result": 22.1, "unit": "µM"}
    ]},
    {"molecule": "{TAMRA}-THDTPDGSILMSTRL", "note": "[Urat1 peptide (15 C-terminal residues of murine Urat1), TAMRA-labelled]", "values": [
      {"measurement": "Kd", "setting": "full-length mouse Pdzk1", "result": 0.026, "unit": "µM"},
      {"measurement": "Kd", "setting": "full-length mouse Nherf1", "result": 0.59, "unit": "µM"}
    ]},
    {"molecule": "{TAMRA}-THGTLGNSVLKSTQF", "note": "[URAT1 peptide (15 C-terminal residues of human URAT1), TAMRA-labelled]", "values": [
      {"measurement": "Kd", "setting": "full-length human NHERF1", "result": "> 70", "unit": "µM"}
    ]},
    {"molecule": "THGTLGNSVLKSTQF (not fully specified)", "note": "[URAT1 peptide fused to the C-terminus of enhanced green fluorescent protein (GFP^URAT1)]", "values": [
      {"measurement": "stoichiometry N", "setting": "[4]", "result": "1.5 GFP^URAT1 per PDZK1 at the peak maximum"},
      {"measurement": "stoichiometry N", "setting": "[5]", "result": "1.4 GFP^URAT1 per PDZK1 at the peak maximum"}
    ]},
    {"molecule": "{TAMRA}-SPRLALPAHHNATRL", "note": "[NaPi-IIa peptide (15 C-terminal residues of NaPi-IIa), TAMRA-labelled]", "values": [
      {"measurement": "Kd", "setting": "full-length mouse Pdzk1", "result": 4, "unit": "µM"},
      {"measurement": "Kd", "setting": "[6]", "result": 8.1, "unit": "µM"},
      {"measurement": "Kd", "setting": "full-length human NHERF1", "result": 4, "unit": "µM"},
      {"measurement": "Kd", "setting": "full-length mouse Nherf1", "result": 4.9, "unit": "µM"}
    ]}
  ]
}
